Source: article PMC10572825 (2023)

Target: Tenascin-C (Mus musculus, UniProt Q80YX1, FITC-labelled tenascin-C)
Assay: isothermal fluorescence titration

B1: CCL26 (protein)
chain: TRGSDISKTCCFQYSHKPLPWTWVRSYEFTSNSCSQRAVIFTTKRGKKVCTHPRKKWVQKYISLLKTPKQL
- Kd: 270 nM
